B1: HIV-1 Rev aptamer (structured_RNA)
RNA: GGCUGGACUCGUACUUCGGUACUGGAGAAACAGCC
B2: HTLV-1 Rex aptamer (structured_RNA)
RNA: UAGGCGACGGUACGCAAGUACUCUUGCGCCGGCCUA

Key:
Conditions in all cases: label: none (ethidium bromide stain)
HTLV-1 Rex peptide [1] = target: T1, HTLV-1 Rex peptide (HTLV-1, UniProt P0C206); experiment: EMSA; 50 mM Tris-HCl pH 8.0, 50 mM KCl, 30 °C 15 min; RNA refolded from 95 °C; 15% PAGE in Tris-borate-EDTA, ethidium bromide stain
T1 chain: MPKTRRRPRRSQRKRP

bacteriophage λN peptide = target: T2, bacteriophage λN peptide (bacteriophage lambda, UniProt P03045); experiment: as above
T2 chain: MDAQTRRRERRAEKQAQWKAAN

HTLV-1 Rex peptide [2] = target: T1, HTLV-1 Rex peptide; experiment: EMSA; peptide in excess over RNA; ++; 50 mM Tris-HCl pH 8.0, 50 mM KCl, 30 °C 15 min; RNA refolded from 95 °C; 15% PAGE in Tris-borate-EDTA, ethidium bromide stain

Binder	binding result (HTLV-1 Rex peptide [1])	binding result (bacteriophage λN peptide)	apparent K (half saturation) (HTLV-1 Rex peptide [2]) [nM]
B1	no binding	no binding	–
B2	–	no binding	~300

— publication PMC4053799, “RNA Detection in Live Bacterial Cells Using Fluorescent Protein Complementation Triggered by Interaction of Two RNA Aptamers with Two RNA-Binding Peptides”
